Measurements: patent US8840891 (RSR, dated 2014)
Like-named read-outs stand apart in the source and are kept apart here.

Legend:
[1] = biological target: wild type human TSHR (human) (UniProt P16473); assay: cell-based or functional assay
[2] = biological target: TSHR with Lys183 mutated to Alanine (human) (UniProt P16473); assay: cell-based or functional assay
[3] = biological target: wild type human TSHR (human) (UniProt P16473); assay: cell-based or functional assay; remark: listed apart in the source
[4] = biological target: TSHR with Ile60 mutated to Alanine (human) (UniProt P16473); assay: cell-based or functional assay
[5] = biological target: wild type human TSHR (human) (UniProt P16473); assay: cell-based or functional assay; remark: listed apart in the source
[6] = biological target: TSHR with Thr104 mutated to Alanine (human) (UniProt P16473); assay: cell-based or functional assay
[7] = biological target: wild type human TSHR (human) (UniProt P16473); assay: cell-based or functional assay; remark: listed apart in the source
[8] = biological target: TSHR with Lys183 mutated to Aspartic acid (human) (UniProt P16473); assay: cell-based or functional assay
[9] = biological target: TSHR coated onto tubes (human) (UniProt P16473); assay: TSHR coated tubes, competitor 125I-TSH
[10] = biological target: wild type human TSHR (human) (UniProt P16473); assay: cell-based or functional assay; remark: listed apart in the source
[11] = biological target: wild type human TSHR (human) (UniProt P16473); assay: cell-based or functional assay; remark: listed apart in the source
[12] = biological target: wild type human TSHR (thyrotropin receptor) expressed on CHO cells (human) (UniProt P16473); assay: cell-based or functional assay
[13] = biological target: TSHR with Tyr185 mutated to Alanine expressed on CHO cells (human) (UniProt P16473); assay: cell-based or functional assay
[14] = biological target: wild type human TSHR (thyrotropin receptor) expressed on CHO cells (human) (UniProt P16473); assay: cell-based or functional assay; remark: listed apart in the source
[15] = biological target: TSHR with Asp232 mutated to Alanine expressed on CHO cells (human) (UniProt P16473); assay: cell-based or functional assay
[16] = biological target: wild type human TSHR (thyrotropin receptor) expressed on CHO cells (human) (UniProt P16473); assay: cell-based or functional assay; remark: listed apart in the source
[17] = biological target: TSHR with Glu178 mutated to Alanine expressed on CHO cells (human) (UniProt P16473); assay: cell-based or functional assay

## 5C9 IgG (antibody)
[1]
  cyclic AMP; 5C9 0.01 µg/mL + TSH (fmol/cell well): 18000
  cyclic AMP; 5C9 0.1 µg/mL + TSH (fmol/cell well): 11500
  cyclic AMP; 5C9 1.0 µg/mL + TSH (fmol/cell well): 3490
  cyclic AMP; 5C9 10 µg/mL + TSH (fmol/cell well): 1230
  cyclic AMP; 5C9 100 µg/mL + TSH (fmol/cell well): 1460
  cyclic AMP; 5C9 100 µg/mL only (fmol/cell well): 384
[2]
  Mutated/wild type (%); 5C9 0.01 µg/mL + TSH: 130%
  Mutated/wild type (%); 5C9 0.1 µg/mL + TSH: 211%
  Mutated/wild type (%); 5C9 1.0 µg/mL + TSH: 418%
  Mutated/wild type (%); 5C9 10 µg/mL + TSH: 618%
  Mutated/wild type (%); 5C9 100 µg/mL + TSH: 786%
  Mutated/wild type (%); 5C9 100 µg/mL only: 195%
  cyclic AMP; 5C9 0.01 µg/mL + TSH (fmol/cell well): 23300
  cyclic AMP; 5C9 0.1 µg/mL + TSH (fmol/cell well): 24300
  cyclic AMP; 5C9 1.0 µg/mL + TSH (fmol/cell well): 14600
  cyclic AMP; 5C9 10 µg/mL + TSH (fmol/cell well): 7570
  cyclic AMP; 5C9 100 µg/mL + TSH (fmol/cell well): 11400
  cyclic AMP; 5C9 100 µg/mL only (fmol/cell well): 747
[3]
  cyclic AMP; 5C9 0.01 µg/mL + TSH (fmol/cell well): 8020
  cyclic AMP; 5C9 0.1 µg/mL + TSH (fmol/cell well): 7100
  cyclic AMP; 5C9 1.0 µg/mL + TSH (fmol/cell well): 1570
  cyclic AMP; 5C9 10 µg/mL + TSH (fmol/cell well): 1770
  cyclic AMP; 5C9 100 µg/mL + TSH (fmol/cell well): 1730
  cyclic AMP; 5C9 100 µg/mL only (fmol/cell well): 61
[4]
  Mutated/wild type (%); 5C9 0.01 µg/mL + TSH: 236%
  Mutated/wild type (%); 5C9 0.1 µg/mL + TSH: 164%
  Mutated/wild type (%); 5C9 1.0 µg/mL + TSH: 210%
  Mutated/wild type (%); 5C9 10 µg/mL + TSH: 68%
  Mutated/wild type (%); 5C9 100 µg/mL + TSH: 181%
  Mutated/wild type (%); 5C9 100 µg/mL only: 426%
  cyclic AMP; 5C9 0.01 µg/mL + TSH (fmol/cell well): 19000
  cyclic AMP; 5C9 0.1 µg/mL + TSH (fmol/cell well): 11600
  cyclic AMP; 5C9 1.0 µg/mL + TSH (fmol/cell well): 3290
  cyclic AMP; 5C9 10 µg/mL + TSH (fmol/cell well): 1210
  cyclic AMP; 5C9 100 µg/mL + TSH (fmol/cell well): 3130
  cyclic AMP; 5C9 100 µg/mL only (fmol/cell well): 260
[5]
  cyclic AMP; 5C9 0.01 µg/mL + TSH (fmol/cell well): 12300
  cyclic AMP; 5C9 1.0 µg/mL + TSH (fmol/cell well): 3700
  cyclic AMP; 5C9 10 µg/mL + TSH (fmol/cell well): 1800
  cyclic AMP; 5C9 100 µg/mL + TSH (fmol/cell well): 2220
  cyclic AMP; 5C9 100 µg/mL only (fmol/cell well): 195
[6]
  Mutated/wild type (%); 5C9 0.01 µg/mL + TSH: 95%
  Mutated/wild type (%); 5C9 0.1 µg/mL + TSH: 134%
  Mutated/wild type (%); 5C9 1.0 µg/mL + TSH: 168%
  Mutated/wild type (%); 5C9 10 µg/mL + TSH: 172%
  Mutated/wild type (%); 5C9 100 µg/mL + TSH: 140%
  Mutated/wild type (%); 5C9 100 µg/mL only: 135%
  cyclic AMP; 5C9 0.01 µg/mL + TSH (fmol/cell well): 11700
  cyclic AMP; 5C9 0.1 µg/mL + TSH (fmol/cell well): 9510
  cyclic AMP; 5C9 1.0 µg/mL + TSH (fmol/cell well): 6200
  cyclic AMP; 5C9 10 µg/mL + TSH (fmol/cell well): 3090
  cyclic AMP; 5C9 100 µg/mL + TSH (fmol/cell well): 3110
  cyclic AMP; 5C9 100 µg/mL only (fmol/cell well): 264
[7]
  cyclic AMP; 5C9 0.01 µg/mL + TSH (fmol/cell well): 12900
  cyclic AMP; 5C9 0.1 µg/mL + TSH (fmol/cell well): 8580
  cyclic AMP; 5C9 1.0 µg/mL + TSH (fmol/cell well): 3420
  cyclic AMP; 5C9 10 µg/mL + TSH (fmol/cell well): 1110
  cyclic AMP; 5C9 100 µg/mL + TSH (fmol/cell well): 1720
  cyclic AMP; 5C9 100 µg/mL only (fmol/cell well): < 12.5
[8]
  Mutated/wild type (%); 5C9 0.01 µg/mL + TSH: 160%
  Mutated/wild type (%); 5C9 0.1 µg/mL + TSH: 202%
  Mutated/wild type (%); 5C9 1.0 µg/mL + TSH: 370%
  Mutated/wild type (%); 5C9 10 µg/mL + TSH: 591%
  Mutated/wild type (%); 5C9 100 µg/mL + TSH: 524%
  cyclic AMP; 5C9 0.01 µg/mL + TSH (fmol/cell well): 20600
  cyclic AMP; 5C9 0.1 µg/mL + TSH (fmol/cell well): 17300
  cyclic AMP; 5C9 1.0 µg/mL + TSH (fmol/cell well): 12700
  cyclic AMP; 5C9 10 µg/mL + TSH (fmol/cell well): 6590
  cyclic AMP; 5C9 100 µg/mL + TSH (fmol/cell well): 9010
  cyclic AMP; 5C9 100 µg/mL only (fmol/cell well): 54
[9]
  % inhib of 125I-TSH binding at 0.01 µg/mL: 2%
  % inhib of 125I-TSH binding at 0.1 µg/mL: 8%
  % inhib of 125I-TSH binding at 1 µg/mL: 21%
  % inhib of 125I-TSH binding at 10 µg/mL: 30%
  % inhib of 125I-TSH binding at 100 µg/mL: 50%
[10]
  cyclic AMP; 5C9 0.01 µg/mL + M22 (fmol/cell well): 16700
  cyclic AMP; 5C9 0.1 µg/mL + M22 (fmol/cell well): 9380
  cyclic AMP; 5C9 1.0 µg/mL + M22 (fmol/cell well): 821
  cyclic AMP; 5C9 10 µg/mL + M22 (fmol/cell well): 208
  cyclic AMP; 5C9 100 µg/mL + M22 (fmol/cell well): 301
  cyclic AMP; 5C9 100 µg/mL only (fmol/cell well): 429
[11]
  cyclic AMP; 5C9 0.01 µg/mL + TSH (fmol/cell well): 7180
  cyclic AMP; 5C9 0.1 µg/mL + TSH (fmol/cell well): 7780
  cyclic AMP; 5C9 1.0 µg/mL + TSH (fmol/cell well): 2540
  cyclic AMP; 5C9 10 µg/mL + TSH (fmol/cell well): 532
  cyclic AMP; 5C9 100 µg/mL + TSH (fmol/cell well): 747
  cyclic AMP; 5C9 100 µg/mL only (fmol/cell well): 119

B1: 5C9 IgG (human monoclonal autoantibody to the TSHR) (antibody, from another filing, V domains shown)
VH: EVQLVESGGGLIQPGGSLRLSCAASGFTVSSNYMSWVRQAPGKGLEWVSVTYSGGSTSYADSVKGRFTISRDNSKNTLYLQMNSLRAEDTAVYYCARGGRYCSSISCYARSGCDYWGQGTLVTVSS
VL: AIQMTQSPSSLSASVGDRVTITCRASQSISNYLNWYQQKPGKAPKLLIYAASSLQSGVPSRFSGSGSGTDFTLTISSLQPEDFATYYCQQSYSSPSTTFGQGTKLEIK
[12]
  Cyclic AMP produced; 5C9 0.01 µg/mL + TSH (fmol/cell well): 17300
  Cyclic AMP produced; 5C9 0.1 µg/mL + TSH (fmol/cell well): 6220
  Cyclic AMP produced; 5C9 1.0 µg/mL + TSH (fmol/cell well): 1660
  Cyclic AMP produced; 5C9 10 µg/mL + TSH (fmol/cell well): 481
  Cyclic AMP produced; 5C9 100 µg/mL + TSH (fmol/cell well): 275
  Cyclic AMP produced; 5C9 100 µg/mL only (fmol/cell well): 123
[13]
  Cyclic AMP produced; 5C9 0.01 µg/mL + TSH (fmol/cell well): 9370
  Cyclic AMP produced; 5C9 0.1 µg/mL + TSH (fmol/cell well): 4540
  Cyclic AMP produced; 5C9 1.0 µg/mL + TSH (fmol/cell well): 1200
  Cyclic AMP produced; 5C9 10 µg/mL + TSH (fmol/cell well): 301
  Cyclic AMP produced; 5C9 100 µg/mL only (fmol/cell well): 163
  Mutated/wild type (%); 5C9 0.01 µg/mL + TSH: 54%
  Mutated/wild type (%); 5C9 0.1 µg/mL + TSH: 73%
  Mutated/wild type (%); 5C9 1.0 µg/mL + TSH: 72%
  Mutated/wild type (%); 5C9 10 µg/mL + TSH: 63%
  Mutated/wild type (%); 5C9 100 µg/mL only: 133%
[14]
  Cyclic AMP produced; 5C9 0.01 µg/mL + TSH (fmol/cell well): 17600
  Cyclic AMP produced; 5C9 0.1 µg/mL + TSH (fmol/cell well): 7330
  Cyclic AMP produced; 5C9 1.0 µg/mL + TSH (fmol/cell well): 1070
  Cyclic AMP produced; 5C9 10 µg/mL + TSH (fmol/cell well): 794
  Cyclic AMP produced; 5C9 100 µg/mL + TSH (fmol/cell well): 166
  Cyclic AMP produced; 5C9 100 µg/mL only (fmol/cell well): 522
[15]
  Cyclic AMP produced; 5C9 0.01 µg/mL + TSH (fmol/cell well): 15300
  Cyclic AMP produced; 5C9 0.1 µg/mL + TSH (fmol/cell well): 6560
  Cyclic AMP produced; 5C9 1.0 µg/mL + TSH (fmol/cell well): 1880
  Cyclic AMP produced; 5C9 10 µg/mL + TSH (fmol/cell well): 710
  Cyclic AMP produced; 5C9 100 µg/mL + TSH (fmol/cell well): 55
  Cyclic AMP produced; 5C9 100 µg/mL only (fmol/cell well): 99
  Mutated/wild type (%); 5C9 0.01 µg/mL + TSH: 87%
  Mutated/wild type (%); 5C9 0.1 µg/mL + TSH: 89%
  Mutated/wild type (%); 5C9 1.0 µg/mL + TSH: 176%
  Mutated/wild type (%); 5C9 10 µg/mL + TSH: 89%
  Mutated/wild type (%); 5C9 100 µg/mL + TSH: 33%
  Mutated/wild type (%); 5C9 100 µg/mL only: 19%
[16]
  Cyclic AMP produced; 5C9 0.01 µg/mL + TSH (fmol/cell well): 12600
  Cyclic AMP produced; 5C9 0.1 µg/mL + TSH (fmol/cell well): 4350
  Cyclic AMP produced; 5C9 1.0 µg/mL + TSH (fmol/cell well): 688
  Cyclic AMP produced; 5C9 10 µg/mL + TSH (fmol/cell well): 630
  Cyclic AMP produced; 5C9 100 µg/mL + TSH (fmol/cell well): 712
  Cyclic AMP produced; 5C9 100 µg/mL only (fmol/cell well): 196
[17]
  Cyclic AMP produced; 5C9 0.01 µg/mL + TSH (fmol/cell well): 8170
  Cyclic AMP produced; 5C9 0.1 µg/mL + TSH (fmol/cell well): 7310
  Cyclic AMP produced; 5C9 1.0 µg/mL + TSH (fmol/cell well): 3570
  Cyclic AMP produced; 5C9 10 µg/mL + TSH (fmol/cell well): 1900
  Cyclic AMP produced; 5C9 100 µg/mL + TSH (fmol/cell well): 894
  Cyclic AMP produced; 5C9 100 µg/mL only (fmol/cell well): 134
  Mutated/wild type (%); 5C9 0.01 µg/mL + TSH: 65%
  Mutated/wild type (%); 5C9 0.1 µg/mL + TSH: 168%
  Mutated/wild type (%); 5C9 1.0 µg/mL + TSH: 519%
  Mutated/wild type (%); 5C9 10 µg/mL + TSH: 302%
  Mutated/wild type (%); 5C9 100 µg/mL + TSH: 126%
  Mutated/wild type (%); 5C9 100 µg/mL only: 68%
